Source: patent US20190162720A1

How the values were obtained:
[1] = target: C-Reactive protein (CRP, R&D Systems, Inc., 1707-CR-200, Mouse myeloma cell line) (UniProt P02741); test: SPR Biacore T200; CRP 1.0 µg/mL fed over antibody held through protein G (Example 6)
[2] = target: C-Reactive protein (CRP, R&D Systems, Inc., 1707-CR-200, Mouse myeloma cell line) (UniProt P02741); test: SPR Biacore T200; CRP 1.0 µg/mL fed over antibody held through protein A/G (6) (Example 7)
[3] = target: C-Reactive protein (CRP, R&D Systems, Inc., 1707-CR-200, Mouse myeloma cell line) (UniProt P02741); test: SPR Biacore T200; CRP 1.0 µg/mL fed over antibody held through protein A/G (8) (Example 8)
[4] = target: C-Reactive protein (CRP, R&D Systems, Inc., 1707-CR-200, Mouse myeloma cell line) (UniProt P02741); test: SPR Biacore T200; CRP 1.0 µg/mL fed over antibody held through protein A/G (6) (Example 9)
[5] = target: C-Reactive protein (CRP, R&D Systems, Inc., 1707-CR-200, Mouse myeloma cell line) (UniProt P02741); test: SPR Biacore T200; CRP 1.0 µg/mL fed over antibody held through protein A/G (6) (Example 10)
[6] = target: C-Reactive protein (CRP, R&D Systems, Inc., 1707-CR-200, Mouse myeloma cell line) (UniProt P02741); test: SPR Biacore T200; CRP 1.0 µg/mL fed over antibody held through protein A/G (8) (Example 11)
[7] = target: C-Reactive protein (CRP, R&D Systems, Inc., 1707-CR-200, Mouse myeloma cell line) (UniProt P02741); test: SPR Biacore T200; CRP 1.0 µg/mL fed over antibody held through protein A/G (6) (Example 12)
[8] = target: C-Reactive protein (CRP, R&D Systems, Inc., 1707-CR-200, Mouse myeloma cell line) (UniProt P02741); test: SPR Biacore T200; CRP 1.0 µg/mL fed over antibody held through protein A/G (6) (Example 13)
[9] = target: C-Reactive protein (CRP, R&D Systems, Inc., 1707-CR-200, Mouse myeloma cell line) (UniProt P02741); test: SPR Biacore T200; CRP 1.0 µg/mL fed over antibody held through protein A/G (6) (Example 14)
[10] = target: C-Reactive protein (CRP, R&D Systems, Inc., 1707-CR-200, Mouse myeloma cell line) (UniProt P02741); test: SPR Biacore T200; CRP 1.0 µg/mL fed over antibody held through protein A/G (6) (Example 15)
[11] = target: C-Reactive protein (CRP, R&D Systems, Inc., 1707-CR-200, Mouse myeloma cell line) (UniProt P02741); test: SPR Biacore T200; CRP 1.0 µg/mL fed over antibody held through protein A/G (6) (Example 16)
[12] = target: C-Reactive protein (CRP, R&D Systems, Inc., 1707-CR-200, Mouse myeloma cell line) (UniProt P02741); test: SPR Biacore T200; CRP 1.0 µg/mL fed over antibody held through protein A/G (6) (Example 17)
[13] = target: C-Reactive protein (CRP, R&D Systems, Inc., 1707-CR-200, Mouse myeloma cell line) (UniProt P02741); test: SPR Biacore T200; CRP 1.0 µg/mL fed over antibody coupled covalently (EDC/s-NHS) to the SAM; corrected with anti-IL6 reference interface (Comparative Example 2)
[14] = target: anti-CRP antibody (R&D Systems, Inc., Human C-Reactive protein Antibody, Monoclonal Mouse IgG2B, MAB17071-500); test: SPR Biacore T200; anti-CRP antibody 100 µg/mL fed over protein A/G (8) held on the first antibody (Example 8)
[15] = target: anti-CRP antibody (R&D Systems, Inc., Human C-Reactive protein Antibody, Monoclonal Mouse IgG2B, MAB17071-500); test: SPR Biacore T200; anti-CRP antibody 100 µg/mL fed over protein A/G (8) held on anti-mPEG antibody (Example 11)
[16] = target: anti-mPEG monoclonal antibody (Abcam plc., ab51257, Mouse monoclonal, Anti-Polyethylene glycol antibody [PEG-B-47]); test: SPR Biacore T200; protein A/G (eight domains) 119 µg/mL fed over anti-mPEG antibody on the mPEG chip (Example 11)
[17] = target: anti-biotin monoclonal antibody (Abcam plc., ab36406, Mouse monoclonal); test: SPR Biacore T200; protein A/G (eight domains) 30 µg/mL fed over anti-biotin monoclonal antibody on the chip (Example 8)
[18] = target: anti-biotin monoclonal antibody (Abcam plc., ab36406, Mouse monoclonal); test: SPR Biacore T200; protein G 40 µg/mL fed over anti-biotin monoclonal antibody on the chip (Example 6)
[19] = target: anti-CRP antibody (R&D Systems, Inc., Human C-Reactive protein Antibody, Monoclonal Mouse IgG2B, MAB17071-500); test: SPR Biacore T200; anti-CRP antibody 100 µg/mL fed over protein G held on the first antibody (Example 6)

Chain of UniProt P02741 (P02741 19-224 limits assumed): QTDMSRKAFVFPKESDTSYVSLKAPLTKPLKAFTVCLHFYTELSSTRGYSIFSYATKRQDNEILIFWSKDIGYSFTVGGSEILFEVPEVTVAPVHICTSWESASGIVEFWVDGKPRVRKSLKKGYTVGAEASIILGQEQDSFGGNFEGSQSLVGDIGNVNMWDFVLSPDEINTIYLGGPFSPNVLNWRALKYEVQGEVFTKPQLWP

“anti-CRP antibody (R&D Systems, Inc., Human C-Reactive protein Antibody, Monoclonal Mouse IgG2B, MAB17071-500)” gave an Amount of antigen bound [1] of 513 RU, an Amount of antigen bound [2] of 422 RU and an Amount of antigen bound [3] of 745 RU. It also gave an Amount of antigen bound [4] of 408 RU, an Amount of antigen bound [5] of 663 RU and an Amount of antigen bound [6] of 536 RU. It also gave an Amount of antigen bound [7] of 508 RU, an Amount of antigen bound [8] of 560 RU and an Amount of antigen bound [9] of 630 RU. For the same substance, the Amount of antigen bound [10] was 519 RU, the Amount of antigen bound [11] was 514 RU and the Amount of antigen bound [12] was 481 RU. For the same substance, the Amount of antigen bound [13] was 284 RU.
For “protein A/G (BioVision Incorporated, 6502, Recombinant Protein A/G from E. coli, eight domains)”, the Amount of second antibody immobilized [14] was 3460 RU, the Amount of second antibody immobilized [15] was 3210 RU and the amount of the protein A/G immobilized [16] was 820 RU. The amount of the protein A/G immobilized [17] was 868 RU.
In the case of “protein G (BioVision Incorporated, 6501, recombinant protein G, three domains)”, the amount of the protein G immobilized [18] is reported as 841 RU and the Amount of second antibody immobilized [19] is reported as 2010 RU.
